Data on 22 sequences can be found in the supplement of paper PMC9170038.

This data set concerns MS2 coat protein. Briefly: apparent KD of MS2 coat protein; designed switch direction (-1 OFF switch, 1 ON switch): 1; higher = weaker reporter binding. The method, boiled down: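 Designed RNA switches with common flanks were made on Illumina chips by stalled E. coli RNA polymerase. Titration with SNAP-549-labelled MS2 coat protein doubled from 0.7 or 1.5 nM up to 3 µM. Apparent KD is each design's median over clusters after curve-fitting normalised fluorescence.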

The mark [1] stands for this setting: Eterna round: R95, input ligand: FMN 200 uM.
Where [2] appears, read: Eterna round: R95, input ligand: microRNA oligo, concentration not stated.
The mark [3] stands for this setting: Eterna round: R95, input ligand: none.
Where [4] appears, read: input ligand: microRNA oligo, concentration not stated.

As to “UACUAUCUAUCUCAGGAUAUCAUGUCAAAGACAUGAGGAUCACCCAUGUACCAGGAAACUGGUUAUGAGAAGGGAGAUAGAUAGA [Mat - Same State 2 - Mod - D39] (puzzle: Same State 2)”, the “apparent KD of MS2 coat protein” value was 0.0982 µM under setting [1], 0.0451 µM under setting [2] and 0.234 µM under setting [3].

In the case of “UAGAAACAUGAGGAUCACCCAUGUGUCAAAGACAUAGGAUAUCGUAACCGGCGCCGAAUACGAGAAGGGUGGUAAA [Arares] (puzzle: Same State 1)”, the “apparent KD of MS2 coat protein” value stood at 0.183 µM under setting [1], 0.0749 µM under setting [2] and 0.166 µM under setting [3].

“UAGAAACAUGAGGAUCACCCAUGUGUCAAAGACAUAGGAUAUCGUGACCGGCGCCGGACACGAGAAGGGUGGUAAA [Quingees] (puzzle: Same State 1)”: the “apparent KD of MS2 coat protein” value reads like this: under setting [1], 0.387 µM; under setting [2], 0.209 µM; under setting [3], 0.386 µM.

Turning to “UAGAGAGGAAGCGAGGAUAUCGUGGGAGGAACAUGAGGAUCACCCAUGUGUGAUGUUGAGAGGGACGAGAAGGCGCGGGAAAUUA [JR_SS2_Sub080] (puzzle: Same State 2)”, the “apparent KD of MS2 coat protein” value was 0.176 µM under setting [1], 0.16 µM under setting [2] and 0.175 µM under setting [3].

With “UAGCUUGUGGUAGGAUAUCUAGGAUAUGGGAAGAGCUAAGCUUGGAAGUCACUUCACCCAGAAGGAGAGAAGGACCAGAGGCUU [pwkr ssNG2 2FMN + F9.6] (Eterna round: R96, puzzle: Same State NG 2)”, the “apparent KD of MS2 coat protein” value by setting is: (input ligand: FMN 200 uM) 0.218 µM; under setting [4], 0.0736 µM; (input ligand: none) 0.262 µM.

For “UAGUGCGUUAGAGGAUAUUCAAGGUGAAAAAAAAAUACAUGAGGAUCACCCAUGUAAAAACAUGAGGAGAAGGCUGAUGUGCUA [Omei SS(NG)2 A] (Eterna round: R96, puzzle: Same State NG 2)”, the “apparent KD of MS2 coat protein” value under setting [4] is 0.038 µM.

As for “UAGUGCGUUAGAGGAUAUUCUAAAUAAAAUAAUAAGACAUGAGGAUCACCCAUGUAUGUACAUGGGAAGAAGGCUGAUGUGCUA [Omei SS(NG)2 Bv2] (Eterna round: R96, puzzle: Same State NG 2)”, the “apparent KD of MS2 coat protein” value under setting [4] came out at 0.342 µM.

As to “UAUCCAUAGAUAGGAUAUCAGUAUACAUGAGGAUCACCCAUGUUCUAUUUGGUUUUAAUUUAUUCUGAGAAGGAUCUUGAUGAA [SameState NG2 #1] (Eterna round: R96, puzzle: Same State NG 2)”, the “apparent KD of MS2 coat protein” value runs as follows: (input ligand: FMN 200 uM) 0.0138 µM; under setting [4], 0.0164 µM; (input ligand: none) 0.0176 µM.

“UAUCCAUAGAUAGGAUAUUAGAGAACAUGAGGAUCACCCAUGUUUGGCUUGGUUUUAAGCUAAUCUGAGAAGGAUCUUGAUGAA [SameState NG2 #8] (Eterna round: R96, puzzle: Same State NG 2)”: the “apparent KD of MS2 coat protein” value by setting is: (input ligand: FMN 200 uM) 0.0855 µM; under setting [4], 0.185 µM; (input ligand: none) 0.119 µM.

With “UAUCCAUAGAUAGGAUAUUAGUGAACAUGAGGAUCACCCAUGUUUUGCUUGGUUUUAAGCUAAUCUGAGAAGGAUCUUGAUGAA [SameState NG2 #6] (Eterna round: R96, puzzle: Same State NG 2)”, the “apparent KD of MS2 coat protein” value is, setting by setting: (input ligand: FMN 200 uM) 0.0315 µM; under setting [4], 0.0333 µM; (input ligand: none) 0.0416 µM.

For the sequence “UCAAGCGAGAGGCUCGUCUUAUGUUUGGUACAUGAGGAUCACCCAUGUUAGGGACGAUUUAGUUAGAUGGAAUUUUG [JR_SHM208A_Sub035] (puzzle: Sensor for hsa-mir-208a)”, the “apparent KD of MS2 coat protein” value under setting [1] was 0.0485 µM, the “apparent KD of MS2 coat protein” value under setting [2] is 0.269 µM and the “apparent KD of MS2 coat protein” value under setting [3] was determined as 0.0657 µM.

In the case of “UCAGUCAUGUAAGGAUAUGCAGCCGUUUCGGCUGCAGAAGGUACUAUAAUUACAUGAGGAUCACCCAUGUUAUAAAAUUUAUAU [JL SSNG1 1.25] (Eterna round: R96, puzzle: Same State NG 1)”, the “apparent KD of MS2 coat protein” value under setting [4] was found to be 0.0388 µM.

For the sequence “UCCGCUAUCUAGAAGGAUAUGCGUAUAUAAACAUGAGGAUCACCCAUGUACCGGCGAAAACCGGUGCAGAAGGUUUAGCUAGUGA [Rediin] (Eterna round: R96, puzzle: Same State 2)”, the “apparent KD of MS2 coat protein” value stood at 0.0698 µM (input ligand: FMN 200 uM), 0.298 µM under setting [4] and 0.359 µM (input ligand: none).

For the sequence “UCCGCUAUCUAGAAGGAUAUGCGUAUAUAAACAUGAGGAUCACCCAUGUACCGGCGAAAACCGGUGCAGAAGGUUUAGCUAGUGA [Rediin] (puzzle: Same State 2)”, the “apparent KD of MS2 coat protein” value runs as follows: under setting [1], 0.0423 µM; under setting [2], 0.273 µM; under setting [3], 0.502 µM.

In the case of “UCUUGGUUUUUGCUCGUUUUUUGUGUUGAACAUGAGGAUCACCCAUGUAUUGUACAAUCCAGUUUGAUAAUGGUCCA [Mod of one of JR's submissions] (puzzle: Sensor for hsa-mir-208a)”, the “apparent KD of MS2 coat protein” value reads like this: under setting [1], 0.0802 µM; under setting [2], 0.0776 µM; under setting [3], 0.102 µM.

“UCUUGGUUUUUGCUCGUUUUUUGUGUUGAACAUGAGGAUCACCCAUGUAUUGUACAGUCCGGUUUAGUGAUGGUCCG [JMF 58] (puzzle: Sensor for hsa-mir-208a)”: the “apparent KD of MS2 coat protein” value under setting [1] came out at 0.0402 µM, the “apparent KD of MS2 coat protein” value under setting [2] worked out at 0.0326 µM and the “apparent KD of MS2 coat protein” value under setting [3] was 0.045 µM.

Consider “UCUUGGUUUUUGCUCGUUUUUUGUGUUGAACAUGAGGAUCACCCAUGUAUUGUACGGUCCAAUUUAAUAAUAAUCCA [JMF 74] (puzzle: Sensor for hsa-mir-208a)”, for which the “apparent KD of MS2 coat protein” value was found to be 0.059 µM under setting [1], 0.0571 µM under setting [2] and 0.0821 µM under setting [3].

Turning to “UCUUGGUUUUUGCUCGUUUUUUGUGUUGAACAUGAGGAUCACCCAUGUAUUGUACGGUCCAGUUUAGUAAUGGUCCA [JMF 7] (puzzle: Sensor for hsa-mir-208a)”, the “apparent KD of MS2 coat protein” value was 0.0263 µM under setting [1], 0.0163 µM under setting [2] and 0.0278 µM under setting [3].

Regarding “UCUUGGUUUUUGCUCGUUUUUUGUGUUGAACAUGAGGAUCACCCAUGUAUUGUACGGUCCGAUUUAAUAAUGGUCCA [JMF 38] (puzzle: Sensor for hsa-mir-208a)”, the “apparent KD of MS2 coat protein” value was 0.0303 µM under setting [1], 0.0183 µM under setting [2] and 0.0324 µM under setting [3].

For “UGCCAUAGUAUAUUGGUACGUGCUUUUUGACAUGAGGAUCACCCAUGUCCUCGUCAUAUGCGCAGUCCGUAGACUGC (puzzle: Sensor for hsa-mir-208a)”, the “apparent KD of MS2 coat protein” value by setting is: under setting [1], 0.328 µM; under setting [2], 0.234 µM; under setting [3], 0.374 µM.

On to “UGCUAGGAUAUCUUGAGGAUCACCCAGGAGAAGGAGCCAAGCUAGGAUAUCCUGAGGAUCACCCAGGAGAAGGAGCACAUACUC [pwkr ssNG3 DX 2xF5 +2xFMN.13] (Eterna round: R96, puzzle: Same State NG 3)”, for which the “apparent KD of MS2 coat protein” value worked out at 0.107 µM (input ligand: FMN 200 uM), 0.0596 µM under setting [4] and 0.102 µM (input ligand: none).

As to “UGCUUCAUGUAAGGAUAUGCAGCCGUUUCGGCUGCAGAAGGUACUAUAAUACAUGAGGAUCACCCAUGUCUCUCGCAUUGCGAG [salish99_SSng1_r04_301] (Eterna round: R96, puzzle: Same State NG 1)”, under setting [4], the “apparent KD of MS2 coat protein” value was 0.111 µM.
